Results reported in paper PMC6544321.

Tests used:
[1] = target: A. thaliana Z-B dimer (AtH2A.Z/AtH2B dimer) (Arabidopsis thaliana); experiment: ITC; AtChz1b (253-463) with A. thaliana histone dimers in 0.25 M NaCl
[2] = target: A. thaliana Z-B dimer (AtH2A.Z/AtH2B dimer) (Arabidopsis thaliana); experiment: ITC; AtChz1b (253-463) with A. thaliana histone dimers in 0.1 M NaCl
[3] = target: yeast single chain H2A-H2B (yeast); experiment: ITC; 0.2 M NaCl (Table 1); Swc2-Z or Chz1-M injected into single-chain histone dimers; otherwise as the ITC methods (25°C, 20 mM MES pH 6.0)
[4] = target: single-chain H2A.Z-H2B with H2A.Z A57P/G98N (yeast); experiment: as above
[5] = target: yeast single-chain H2A.Z-H2B (yeast); experiment: as above
[6] = target: single chain H2A-H2B with H2A P50A/N91G (yeast); experiment: as above

Kd [1] [µM] | Kd [2] [µM] | stoichiometry N [3] [sites] | Kd [4] [µM] | stoichiometry N [4] [sites] | Kd [5] [µM] | stoichiometry N [5] [sites] | Kd [6] [µM] | stoichiometry N [6] [sites] | Substance
19.9 | 0.05 |  |  |  |  |  |  |  | AtChz1b (residues 253–463) (domain or fragment)
 |  | 0.9 | 0.04 | 0.8 | 0.04 | 1.1 | 0.17 | 1 | Swc2-Z, the 1–136 segment of the Swc2 subunit of the SWR1 complex (domain or fragment)
